Target: T1, RARα (Homo sapiens, UniProt P10276)
T1 construct: expressed in transfected cells; host or cells: CV-1 (African green monkey kidney)
T1 sequence (P10276 1-462): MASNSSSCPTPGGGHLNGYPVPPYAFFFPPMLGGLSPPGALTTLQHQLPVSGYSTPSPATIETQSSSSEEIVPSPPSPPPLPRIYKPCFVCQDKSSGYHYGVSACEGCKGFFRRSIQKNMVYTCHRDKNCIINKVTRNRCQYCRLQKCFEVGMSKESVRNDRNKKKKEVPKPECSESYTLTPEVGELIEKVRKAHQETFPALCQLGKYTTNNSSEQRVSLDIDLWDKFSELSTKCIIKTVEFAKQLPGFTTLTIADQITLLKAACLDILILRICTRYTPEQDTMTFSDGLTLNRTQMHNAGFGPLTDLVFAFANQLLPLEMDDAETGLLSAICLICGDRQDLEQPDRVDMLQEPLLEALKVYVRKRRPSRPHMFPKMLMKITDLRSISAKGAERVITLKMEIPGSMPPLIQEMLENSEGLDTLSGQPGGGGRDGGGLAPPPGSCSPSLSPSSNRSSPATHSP
T1 sequence (P19793 1-462 partner): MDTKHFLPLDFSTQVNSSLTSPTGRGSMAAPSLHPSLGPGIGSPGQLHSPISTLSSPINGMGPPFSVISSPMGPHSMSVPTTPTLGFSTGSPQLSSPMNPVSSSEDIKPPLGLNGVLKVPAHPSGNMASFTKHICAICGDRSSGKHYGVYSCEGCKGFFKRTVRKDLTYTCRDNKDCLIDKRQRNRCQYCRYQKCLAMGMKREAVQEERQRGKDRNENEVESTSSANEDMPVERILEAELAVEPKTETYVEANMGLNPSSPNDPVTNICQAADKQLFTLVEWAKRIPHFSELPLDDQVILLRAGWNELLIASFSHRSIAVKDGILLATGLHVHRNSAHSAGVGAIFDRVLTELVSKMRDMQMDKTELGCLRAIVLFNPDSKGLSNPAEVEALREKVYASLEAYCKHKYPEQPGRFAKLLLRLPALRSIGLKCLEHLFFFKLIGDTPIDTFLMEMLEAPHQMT
Assay: Reporter gene assay, ERRγ3 coexisted with RARα, pGVP2-RARE in CV-1 cells
Format: cell-based
Conditions: 5×10^−8 M retinoic acid, FIG. 22
Text: The reporter gene assay was used to evaluate the effect of ligand 4-hydroxytamoxifen and 5×10^−8 M of retinoic acid on the function of ERRγ3 in enhancing the transcriptional activation function of retinoic acid receptor (RAR) (FIG. 22). RAR is a nuclear receptor belonging to group B of subfamily 1.
CV-1 cells (a cell line derived from the kidney of African green monkey) were used as hosts in the reporter gene assay. The luciferase reporter plasmid pGVP2-RARE and the expression plasmids for ERRγ3 and RARα: pcDNA3.1-ERRγ3 and pcDNA3.1-RARα, respectively, or alternatively the expression plasmid for both nuclear receptors, were transfected into the host cells. […]
Transfection was performed as follows: CV-1 cells were resuspended in DMEM supplemented with 10% fetal bovine serum, 2000 U/l of penicillin G, and 100 mg/l of streptomycin to a concentration of 2×10^5 cells/2.5 ml. […] 1 μg of each of the expression plasmids for the transcription factors, the luciferase reporter plasmid, and another luciferase reporter plasmid used for normalization of the measured values (pRL-TK), were dissolved in Opti-MEM (Gibco BRL), to a total of 150 μl. […] Luciferase activity was measured using the Dual-Luciferase™ Reporter Assay System (Promega). […] The protocol for measurement was as follows: 50 μl of Luciferase Assay Reagent II was added to each well, stirred for 0.3 seconds, and measured for one second. […]

B1: ERRγ3: novel ERRγ isoform, nuclear receptor protein of 396 amino acids (SEQ ID NO: 2) lacking part of the DNA binding domain (protein, listed as Homo sapiens)
chain: MSNKDRHIDSSCSSFIKTEPSSPASLTDSVNHHSPGGSSDASGSYSSTMNGHQNGLDSPPLYPSAPILGGSGPVRKLYDDCSSTIVEDPQTKCEYMLNSMPKRLCLVCGDIASGYHYGVASCEACKAFFKRTIQGVRLDRVRGGRQKYKRRIDAENSPYLNPQLAQPAKKPYNKIVSHLLVAEPEKIYAMPDPTVPDSDIKALTTLCDLADRELVVIIGWAKHIPGFSTLSLADQMSLLQSAWMEILILGVVYRSLSFEDELVYADDYIMDEDQSKLAGLLDLNNAILQLVKKYKSMKLEKEEFVTLKAIALANSDSMHIEDVEAVQKLQDVLHEALQDYEAGQHMEDPRRAGKMLMTLPLLRQTSTKAVQHFYNIKLEGKVPMHKLFLEMLEAKV
modifying effect on the transcriptional stimulation activity of RAR: did not show a significant modifying effect

Reference: US20060148030A1, “Nuclear receptor err y 3” (FUJISAWA PHARMACEUTICAL CO., LTD, priority 2002, published 2006)
